These results are taken from PMC7854179 (Molecules and Cells, 2021).

T1: human PTPN14 PTP domain (residues 886-1187), PTP_(PTPN14) (human, UniProt Q15678 886-1187)
T1 sequence: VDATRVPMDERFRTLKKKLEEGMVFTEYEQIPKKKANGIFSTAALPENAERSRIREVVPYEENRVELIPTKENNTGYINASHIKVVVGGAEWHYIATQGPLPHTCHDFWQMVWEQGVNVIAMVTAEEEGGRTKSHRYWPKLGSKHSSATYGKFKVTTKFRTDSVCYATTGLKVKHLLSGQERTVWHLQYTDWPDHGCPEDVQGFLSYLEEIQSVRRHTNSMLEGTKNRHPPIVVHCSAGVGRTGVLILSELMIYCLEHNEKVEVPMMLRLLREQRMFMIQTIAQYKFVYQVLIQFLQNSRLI

B1: human PTPN21 PTP domain (residues 873-1174), PTP_(PTPN21) (domain or fragment)
chain: EVATRATNDERCKILEQRLEQGMVFTEYERILKKRLVDGECSTARLPENAERNRFQDVLPYDDVRVELVPTKENNTGYINASHIKVSVSGIEWDYIATQGPLQNTCQDFWQMVWEQGIAIIAMVTAEEEGGREKSFRYWPRLGSRHNTVTYGRFKITTRFRTDSGCYATTGLKMKHLLTGQERTVWHLQYTDWPEHGCPEDLKGFLSYLEEIQSVRRHTNSTSDPQSPNPPLLVHCSAGVGRTGVVILSEIMIACLEHNEVLDIPRVLDMLRQQRMMLVQTLCQYTFVYRVLIQFLKSSRLI
B2: HPV16 E7 CR3 (residues 45-98) (domain or fragment)
chain: AEPDRAHYNIVTFCCKCDSTLRLCVQSTHVDIRTLEDLLMGTLGIVCPICSQKP
B3: HPV11 E7 CR3 (residues 45-98) (domain or fragment)
chain: AQPLTQHYQILTCCCGCDSNVRLVVECTDGDIRQLQDLLLGTLNIVCPICAPKP
B4: HPV1a E7 CR3 (residues 39-93) (domain or fragment)
chain: LVSPQQPYAVVASCAYCEKLVRLTVLADHSAIRQLEELLLRSLNIVCPLCTLQRQ
B5: HPV18 E7 conserved region 3 (residues 54-105), CR3_(18E7) (domain or fragment)
chain: AEPQRHTMLCMCCKCEARIKLVVESSADDLRAFQQLFLNTLSFVCPWCASQQ

For data set [1], the target named is B5. Nature of the data set: SEC-MALS. (In general: SEC sorts molecules by how far they enter the pores of the column.)
Data set [2] has as its target B2. Nature of the data set: SEC-MALS.
Data set [3] addresses B4. Nature of the data set: SEC-MALS.
For data set [4], the target named is B3. As to the kind of experiment: SEC-MALS.
Data set [5] deals with B5. As to the kind of experiment: SAXS.
The data set “SEC-MALS” concerns the molecule itself. Nature of the data set: SEC-MALS.
In data set [6] the target is T1, human PTPN14 PTP domain (residues …). Nature of the data set: SAXS.
In data set [7] the target is B1. Nature of the data set: ITC.

The stoichiometry N is the number of molecules, sites or subunits per partner or assembly. On to B1, for which the “stoichiometry N” value in data set [1] was 1 PTP_(PTPN21) per E7 CR3 chain (2:2); in data set [2], 1 PTP_(PTPN21) per E7 CR3 chain (2:2); in data set [3], 1 PTP_(PTPN21) per E7 CR3 chain (2:2); in data set [4], 1 PTP_(PTPN21) per E7 CR3 chain (2:2); in data set [5], 1 PTP_(PTPN21) per CR3_(18E7) chain (2:2).
Regarding B2, the “stoichiometry N” value in “SEC-MALS” is 2.
Still for that read-out and setting: the figure for B3 is 2; for B4 it is 2.
As usually defined, the Kd is the equilibrium constant for the complex coming apart. Read a low Kd as tighter binding. Take B5: the “stoichiometry N” value in “SEC-MALS” amounted to 2. In addition, in data set [6], the binding result was “binds”. The molecule also registered a Kd in data set [7] of 5.43 nM.
